Measured values reported in PMC6548343 (Journal of Molecular Cell Biology, 2018).
Where “and” joins values, the source holds several entries; their conditions need not be identical. Identical values can stand only once.

Target: the molecule itself
Experiment: EM classification and 3D reconstruction; INO80 sub-complexes and separated Rvb1/Rvb2 rings in the Mono Q fraction of the Ino80-2×FLAG purification

B1: Rvb1/Rvb2 (complex, S. cerevisiae)
chain 1: MVAISEVKENPGVNSSNSGAVTRTAAHTHIKGLGLDESGVAKRVEGGFVGQIEAREACGVIVDLIKAKKMSGRAILLAGGPSTGKTALALAISQELGPKVPFCPLVGSELYSVEVKKTETLMENFRRAIGLRIKETKEVYEGEVTELTPEDAENPLGGYGKTISHVIVGLKSAKGTKTLRLDPTIYESIQREKVSIGDVIYIEANTGAVKRVGRSDAYATEFDLETEEYVPLPKGEVHKKKEIVQDVTLHDLDVANARPQGGQDVISMMGQLLKPKKTEITEKLRQEVNKVVAKYIDQGVAELIPGVLFIDEVNMLDIEIFTYLNKALESNIAPVVVLASNRGMTTVRGTEDVISPHGVPPDLIDRLLIVRTLPYDKDEIRTIIERRATVERLQVESSALDLLATMGTETSLRYALQLLAPCGILAQTSNRKEIVVNDVNEAKLLFLDAKRSTKILETSANYL
chain 2: MSIQTSDPNETSDLKSLSLIAAHSHITGLGLDENLQPRPTSEGMVGQLQARRAAGVILKMVQNGTIAGRAVLVAGPPSTGKTALAMGVSQSLGKDVPFTAIAGSEIFSLELSKTEALTQAFRKSIGIKIKEETELIEGEVVEIQIDRSITGGHKQGKLTIKTTDMETIYELGNKMIDGLTKEKVLAGDVISIDKASGKITKLGRSFARSRDYDAMGADTRFVQCPEGELQKRKTVVHTVSLHEIDVINSRTQGFLALFTGDTGEIRSEVRDQINTKVAEWKEEGKAEIVPGVLFIDEVHMLDIECFSFINRALEDEFAPIVMMATNRGVSKTRGTNYKSPHGLPLDLLDRSIIITTKSYNEQEIKTILSIRAQEEEVELSSDALDLLTKTGVETSLRYSSNLISVAQQIAMKRKNNTVEVEDVKRAYLLFLDSARSVKYVQENESQYIDDQGNVQISIAKSADPDAMDTTE
notes: Rvb1, AAA+ ATPase subunit, S. cerevisiae; Rvb2, AAA+ ATPase subunit, S. cerevisiae; Seen as a hexameric ring in INO80 and as free hexamers and dodecamers; The fitted models PDB 2XSZ and 5OAF are of the human proteins; also called Rvb1/Rvb2 hexameric ring; Rvb1-Rvb2 ring; source: endogenous, S. cerevisiae, co-purified with tagged Ino80 (FLAG resin, Mono Q)
  stoichiometry N: 12 and 6
